Data published in US8728980B2, “Peptide microarray and method of use” (The Regents of the University of California, priority 2011, dated 2014).
Primed or numbered codes have the meaning given here. No end group written: not given here. Me3 = trimethylation of the lysine side chain; Me3(3) = trimethyl (trimethylated lysine)

Tests used:
Polycomb = molecular target: T1, Polycomb (Drosophila melanogaster, UniProt P26017); details: from reference 2; read-out: Experimental dissociation constant; cited from earlier work
T1 sequence (P26017 1-390): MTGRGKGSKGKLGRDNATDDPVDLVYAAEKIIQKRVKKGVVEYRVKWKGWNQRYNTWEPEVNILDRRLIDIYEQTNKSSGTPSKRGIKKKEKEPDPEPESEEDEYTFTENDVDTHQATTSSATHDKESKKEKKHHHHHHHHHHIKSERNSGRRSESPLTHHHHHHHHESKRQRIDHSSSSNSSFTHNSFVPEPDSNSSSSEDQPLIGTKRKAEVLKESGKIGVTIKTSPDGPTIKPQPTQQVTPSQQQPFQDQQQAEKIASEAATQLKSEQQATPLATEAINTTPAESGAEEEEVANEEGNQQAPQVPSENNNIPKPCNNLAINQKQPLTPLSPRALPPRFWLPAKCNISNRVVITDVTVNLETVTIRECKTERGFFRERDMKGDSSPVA

[1] = molecular target: T2, Polycomb protein chromodomain (Drosophila melanogaster, UniProt P26017); assay: Peptide microarray binding of GST-tagged Polycomb chromodomain; design: dose or concentration left out as unconfirmed; details: Binder if at least two of three spots pass p-value cutoff 0.001 from background
T2 construct: The chromodomain (a.a. 1-90) of Polycomb protein was expressed as GST-tagged fusion protein; made in house
T2 sequence (P26017 1-90): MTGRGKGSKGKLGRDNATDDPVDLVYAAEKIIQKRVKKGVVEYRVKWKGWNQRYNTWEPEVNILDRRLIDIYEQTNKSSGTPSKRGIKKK
Excerpt: There are a total of 46 histone peptide sequences (9 a.a. long) with a single lysine-trimethylation site which are conserved between the human and fruit fly H2, H3 and H4 proteins (Table II). These were screened for Polycomb protein chromodomain binding by peptide microarray. Each peptide sequence was screened as triplets, and the fluorescence intensity was quantified with background subtraction individually for each spot from the microarray images by ImageJ^9 and the whole data set was fit to a mixed Gaussian distribution model (FIG. 8, Table III).
Twelve out of the 46 sequences were identified as positive binders under these criteria. Ten of these microarray-identified binders also yielded high mutation matrix score in an independent prediction (Table IV).
The chromodomain (a.a. 1-90) of Polycomb protein was expressed as GST-tagged fusion protein and purified as described in [65]. The purity of the protein was examined by SDS-PAGE electrophoresis followed by both Coomassie staining and western blot using an Anti-GST-HRP conjugate (Santa Cruz Biotechnology). The concentration of purified protein was determined by BCA assay (Amresco). A total of 46 trimethylated histone peptides were synthesized by Sigma Aldrich (desalted, mass spectrometry checked). The peptides were then printed as triplets onto glass slides (ArrayIt), together with a Cy3 marker and an anti-GST (mouse monoclonal) antibody (Thermo) as references.
The peptide microarray was rinsed with TBST buffer (25 mM Tris, 125 mM NaCl, 0.05% Tween-20, pH 8) followed by blocking with 5% non-fat milk in TBST (room temperature 1 hour or 4° C. overnight). The slide was then incubated at 4° C. with Polycomb-GST fusion protein at a final concentration of […] in 5% non-fat milk/TBST for 6 hours. After washing three times for 10 minutes each with TBST, the slide was incubated with an anti-GST mouse monoclonal IgG antibody (Thermo) at a final concentration of 1 μg/mL in 5% non-fat milk/TBST and shaken gently for 1 hour at room temperature. A secondary anti-mouse IgG Dylight-488 conjugated antibody (Thermo) was added to a final concentration of 0.1 μg/mL after three more cycles of 10 minutes washing with TBST. The slide was shaken for 1 hr at room temperature and washed three times with TBST.
The dried microarray slides were scanned using a Hamamatsu NanoZoomer 2.0HT Slide Scanning System (Neuroscience Light Microscopy Facility, UCSD). Data quantification were processed using the microarray processing software ImageJ^9, where the fluorescent intensity of a microarray spot was defined as its own intensity minus the background intensity around it on the scanned image.

Abl1 SH3 domain = Abl1 SH3 domain (Homo sapiens, UniProt P00519); assay: Peptide microarray binding of GST-Abl SH3 fusion protein (Cy3 fluorescence); details: peptides printed at 1 mg/ml in triplicates, GST-Abl SH3 5 μM
Protocol: The GST-tagged Abl SH3 domain fusion protein was purified as previously described (12). Protein concentration was determined using the Bradford Assay (Bio-Rad). The purity of the fusion protein was checked by electrophoresis on SDS-PAGE gel and coomassie blue staining. The fusion protein was also subjected to electrophoresis on SDS-PAGE gel, followed by Western blot using a horseradish peroxidase-conjugated anti-GST antibody (Santa Cruz Biotechnology) and the SuperSignal West chemiluminescent substrate (Pierce).
All peptides were synthesized by Sigma-Aldrich. The peptides were printed onto glass slides in triplicates by ArrayIt Corporation. […]
The peptide microarray was processed by the InnoScan 710 laser scanner (ArrayIt Corporation). Cy-3 fluorescence was detected using the 532 nm laser at 3 um resolution. The resulted microarray image was analyzed by the microarray image process software Mapix2.8.2 (ArrayIt Corporation). The fluorescent intensity of a microarray spot was defined as its own intensity minus the background intensity around it, as determined from the scanned image.
To print peptide microarrays, method of immobilizing the peptides on the glass surface, as well as the amount of peptide printed, needed to decide. […] Binding of GST-Abl SH3 to peptides generated a Cy3 fluorescent signal that was recorded on a laser scanner. […]

Chain of Abl1 SH3 domain (P00519 61-121 limits assumed): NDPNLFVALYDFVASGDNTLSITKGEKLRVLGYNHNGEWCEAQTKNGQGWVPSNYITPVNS

Sequence	Kd (Polycomb)	Array Verification [1]	Average fluorescence intensity (high printing concentration) (Abl1 SH3 domain)
LATKAARKS [template histone H3 peptide L20 to S28 with trimethylated Lys27, reference compound]	5 ± 1 µM	Binder	
PPDPPPPPLP [10-residue peptide of SHIP2_HUMAN 1050-1059]			58833
TGGKAPRKQ (also: trimethylated Lys, site not given here) [9-residue histone peptide, H3_DROME, trimethylated lysine site 18]		NonBinder	
VTYTEHAKR (VTYTEHAK(Me3(3))R) [9-residue histone peptide, H4_DROME, trimethylated lysine site 77]		NonBinder	
YTEHAKRKT (YTEHAKRK(Me3)T) [9-residue histone peptide, H4_DROME, trimethylated lysine site 79]		NonBinder	
